Reference: patent publication US7098001B2, “Polypeptides having dipeptidyl aminopeptidase activity and nucleic acids encoding same” (Novozymes, Inc., priority 1997, dated 2006)

What was measured:
[1] = temperature stability of dipeptidyl aminopeptidase I; assay type: physicochemical; conditions: for Percent activity relative to 37iC.: 20 minutes, pH 7.5, no substrate, assayed with Ala-Pro-pNA
Procedure: The temperature stability of the dipeptidyl aminopeptidase I was determined using the following protocol: 490 μl of 50 mM sodium phosphate buffer pH 7.5 was preincubated at 37 ? , 45 ? , 55 ? , 60 ? , 65 ? , 70 ? , and 75 ? C for 30 minutes in a 1.7 ml Eppendorf tube. Then 10 μl of purified dipeptidyl aminopeptidase I was added and the sample was then incubated for an additional 20 minutes. The samples were then placed on ice. Once the incubations were completed for all the temperatures, the samples were then assayed for activity using Ala-Pro-pNA as substrate.
The assay was performed by mixing 30 μl of the incubation mixtures for the various temperatures with 200 μl of 2 mg/ml Ala-Pro-pNA in 50 mM sodium phosphate pH 7.5 buffer) at ambient temperature. The absorbance at 405 nm was monitored for 5 minutes.

[2] = activity of the purified enzymes on Leu-pNA; assay type: biochemical; conditions: 100-fold dilution
Procedure: The enzyme solution was then loaded onto a XK-26 column containing Q-Sepharose Big Beads pre-equilibrated with 20 mM phosphate buffer pH 7.5 buffer. A gradient was run from 0 to 300 mM NaCl, and then washed with 350 ml of 300 mM NaCl. Fractions were assayed for Leu-pNA activity according to the following protocol. The substrate was prepared by dissolving 2 mg of Leu-pNA (Sigma Chemical Co., St. Louis, Mo.) in 20 μl of DMSO. Then, 980 μl of 50 mM sodium phosphate pH 7.5 buffer was added. In a 96 well microtiter plate, 100 μl of the substrate solution was added to 100 μl of Aspergillus oryzae aminopeptidase I (100 fold diluted in 50 mM sodium phosphate pH 7.5 buffer) and the increase in absorbance at 405 nm was measured for 4 minutes using a SpectroMax 340 plate reader.
The purified aminopeptidase I was determined to have an activity of 26.822 LAPUs/ml for Leu-pNA using an extinction coefficient of 10,000 for para-nitroaniline at 405 nm. LAPU is defined as the leucine aminopeptidase activity which is determined as described in AF 298/1-GB (available on request from Novo Nordisk A/S, Denmark). The purified dipeptidyl aminopeptidase I was determined to have an activity of 11.54 DPAPU/ml for Ala-Pro-pNA, also using an extinction coefficient of 10000 for paranitroaniline. […]

[3] = activity of the purified enzymes on Ala-Pro-pNA; assay type: biochemical; conditions: purified enzyme; extinction coefficient of 10000
Procedure: A polypeptide of the present invention is added to the proteinaceous substrate in an effective amount conventionally employed in protein hydrolysis processes, preferably in the range of from about 0.1 to about 100,000 dipeptidyl aminopeptidase units (DPAPU) per 100 g of protein, and more preferably in the range of from about 1 to about 10,000 dipeptidyl aminopeptidase units per 100 g of protein. As defined herein, one dipeptidyl aminopeptidase Unit (DPAPU) is the amount of enyzme needed to release 1 micromole of p-nitroanilide per minute from Ala-Pro-p-nitroanilide (Sigma Chemical Co., St. Louis Mo.) under specified conditions.
The sample was then loaded onto a column (XK-26) containing 60 ml of Q-Sepharose Big Beads, which had been pre-equilibrated with 400 ml of 20 mM sodium phosphate pH 7.0 buffer. The column was washed until baseline was reached. […] In a 96 well microtiter plate, 100 μl of the substrate solution was added to 100 μl of Aspergillus oryzae dipeptidyl aminopeptidase I (100 fold diluted in 50 mM sodium phosphate buffer pH 7.5) and the increase in absorbance at 405 nm was measured for 4 minutes using a SpectroMax 340 plate reader (Molecular Devices, Sunnyvale, Calif.). […]
The purified aminopeptidase I was determined to have an activity of 26.822 LAPUs/ml for Leu-pNA using an extinction coefficient of 10,000 for para-nitroaniline at 405 nm. […]

[4] = system: gelatin, soy bean meal tablets, wheat gluten, and sodium-caseinate; assay: degree of hydrolysis (DH) assays, OPA method; assay type: biochemical; conditions: 0.125 mg added to FLAVOURZYME 3 mg and ALCALASE 3 mg; 50 C, 18 hours; all proteins tested
Procedure: The degree of hydrolysis (DH) assays were performed at 50 ? C for 18 hours as a mini-hydrolysis on a 10 ml scale using gelatin, soy bean meal tablets, wheat gluten, and sodium-caseinate at a 2% concentration adjusted to pH 7, if necessary, with no pH adjustment during hydrolysis. The hydrolyses were inactivated at 85 ? C for 3 minutes in a waterbath. The enzymes used were FLAVOURZYME™ with ALCALASE™ 2.4L (Novo Nordisk A/S, Bagsvrd, Denmark) and dipeptidyl aminopeptidase I with FLAVOURZYME™ and ALCALASE™ 2.4L. FLAVOURZYME™, ALCALASE™, and dipeptidyl aminopeptidase I were dosed at 3 mg, 3 mg, 0.125 mg, respectively, per 200 mg of protein per ml.
The DH, as defined by Adler-Nissen (1986, Enzymic Hydrolysis of Food Proteins, Elsevier Applied Science Publishers), was determined by reaction of the supernatant with OPA (ortho-phtaldialdehyde, Sigma Chemical Co., St. Louis, Mo.). […]
A volume of 25 μl of suitably diluted supernatant was mixed with 200 μl of OPA reagent in a microtiter plate well and allowed to react for exactly 2 minutes at 25 ? C The absorbance at 340 nm was measured in a microtiter plate reader and compared to the absorbance of a […] L-serine standard solution after subtraction of the blank value (water reacted with OPA-reagent). […] The degree of hydrolysis was calculated on basis of the total amount of protein in the hydrolysis mixture (not on basis of soluble protein).

B1: dipeptidyl aminopeptidase I: Recombinant Aspergillus oryzae 1568 (ATCC 20386) dipeptidyl aminopeptidase I, 771 amino acids (SEQ ID NO:2), produced in Fusarium and purified (protein, listed as Aspergillus oryzae)
chain: MKYSKLLLLLVSVVQALDVPRKPHAPTGEGSKRLTFNETVVKQAITPTSRSVQWLSGAEDGSYVYAAEDGSLTIENIVTNESRTLIPADKIPTGKEAFNYWIHPDLSSVLWASNHTKQYRHSFFADYYVQDVESLKSVPLMPDQEGDIQYAQWSPVGNTIAFVRENDLYVWDNGTVTRITDDGGPDMFHGVPDWIYEEEILGDRYALWFSPDGEYLAYLSFNETGVPTYTVQYYMDNQEIAPAYPWELKIRYPKVSQTNPTVTLSLLNIASKEVKQAPIDAFESTDLIIGEVAWLTDTHTTVAAKAFNRVQDQQKVVAVDTASNKATVISDRDGTDGWLDNLLSMKYIGPIKPSDKDAYYIDISDHSGWAHLYLFPVSGGEPIPLTKGDWEVTSILSIDQERQLVYYLSTQHHSTERHLYSVSYSTFAVTPLVDDTVAAYWSASFSANSGYYILTYGGPDVPYQELYTTNSTKPLRTITDNAKVLEQIKDYALPNITYFELPLPSGETLNVMQRLPPGFSPDKKYPILFTPYGGPGAQEVTKRWQALNFKAYVASDSELEYVTWTVDNRGTGFKGRKFRSAVTRQLGLLEAEDQIYAAQQAANIPWIDADHIGIWGWSFGGYLTSKVLEKDSGAFTLGVITAPVSDWRFYDSMYTERYMKTLSTNEEGYETSAVRKTDGFKNVEGGFLIQHGTGDDNVHFQNSAALVDLLMGDGVSPEKLHSQWFTDSDHGISYHGGGVFLYKQLARKLYQEKNRQTQVLMHQWTKKDLEE
Percent activity relative to 37iC. ([1]; 37 C): 100%
Percent activity relative to 37iC. ([1]; 45 C): 103%
Percent activity relative to 37iC. ([1]; 55 C): 103%
Percent activity relative to 37iC. ([1]; 65 C): 92.5%
Percent activity relative to 37iC. ([1]; 70 C): 37.7%
Percent activity relative to 37iC. ([1]; 75 C): 0.7%
activity retained ([1]; after a 20 minute incubation at 65 C, pH 7.5): 90%
velocity on Leu-pNA [2]: < 2 mOD/min
activity for Ala-Pro-pNA [3]: 11.54 DPAPU/ml
increase of the degree of hydrolysis above FLAVOURZYME and ALCALASE alone [4]: 5%
